In US7041457B2, “Gαq protein variants and their use in the analysis and discovery of agonists and antagonists of chemosensory receptors” (Senomyx, Inc., priority 2000, dated 2006):

T1: bitter receptor mT2R5 (Mus musculus, UniProt Q9JKT4)
T1 construct: expressed in transfected cells
T1 sequence (Q9JKT4 1-300): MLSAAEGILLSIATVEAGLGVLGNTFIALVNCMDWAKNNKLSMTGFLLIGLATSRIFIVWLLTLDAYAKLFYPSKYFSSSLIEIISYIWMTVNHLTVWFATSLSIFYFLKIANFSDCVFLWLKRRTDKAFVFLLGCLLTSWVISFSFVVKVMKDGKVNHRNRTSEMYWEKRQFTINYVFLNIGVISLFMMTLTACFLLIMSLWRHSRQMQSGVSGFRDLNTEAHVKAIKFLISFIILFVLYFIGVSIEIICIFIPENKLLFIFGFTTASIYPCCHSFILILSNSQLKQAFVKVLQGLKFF

T2: mouse olfactory receptor 17 (Mus musculus, UniProt Q9QWU6)
T2 construct: expressed in transfected cells
T2 sequence (Q9QWU6 1-327): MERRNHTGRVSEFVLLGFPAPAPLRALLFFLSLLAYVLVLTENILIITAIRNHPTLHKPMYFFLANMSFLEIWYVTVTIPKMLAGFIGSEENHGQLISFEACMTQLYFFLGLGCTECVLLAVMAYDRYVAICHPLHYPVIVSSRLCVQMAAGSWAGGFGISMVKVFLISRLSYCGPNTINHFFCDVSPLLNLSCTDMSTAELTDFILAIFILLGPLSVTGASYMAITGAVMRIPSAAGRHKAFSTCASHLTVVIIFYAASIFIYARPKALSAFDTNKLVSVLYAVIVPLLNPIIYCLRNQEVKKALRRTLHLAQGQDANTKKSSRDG


target: T1, bitter receptor mT2R5; test: Functional coupling of Gq variants with bitter taste receptor mT2R5 (mammalian cell-based systems and Xenopus oocytes, calcium imaging)
Text: (§1) The present invention addresses the above described problems associated with using Gα15/α16, as well as other problems known in the art relating to the use of weakly promiscuous Gα proteins. […] According to the invention, the functional coupling can be determined, for example, by measuring changes in intracellular IP3 or calcium. In a particular embodiment, the Gq protein variants can be expressed in mammalian cell lines or Xenopus oocytes, and then evaluated using calcium fluorescence imaging and electrophysiological recording.
(§2) It was found by functional analysis using single-cell calcium imaging that activation of multi-family GPCRs evoked increases in cytosolic calcium in the presence of the Gαq variants with the G66D mutation. These GPCRs include Gαs-coupled β-adrenergic receptor, Gαolf-coupled mouse 17 olfactory receptor, Gαi-coupled m2 muscarinic receptor, and gustducin-coupled bitter receptor mT2R5. No significant change in cytosolic calcium could be detected by activation of the above GPCRs in the absence of the Gαq variants. Additional GPCRs can include those disclosed in U.S. patent application Ser. No. 09/510,332 filed Feb. 22, 2000 now abandoned; and U.S. Provisional Application Nos. 60/213,849 filed Jun. 23, 2000; 60/209,840 filed Jun. 6, 2000; 60/195,536 filed Apr. 7, 2000; 60/195,534 filed Apr. 7, 2000; 60/195,532 filed Apr. 7, 2000; which are herein incorporated by references for all purposes in a manner consistent with this disclosure.
A series of Gαq protein variants having the sequences listed in FIG. 3 were constructed and tested in mammalian cell-based systems and in Xenopus oocytes for functional coupling efficiency with bitter receptor mT2R5 and mouse olfactory receptor 17.

| Molecule | Functional Activity With Taste Receptor MT2R5 |
| --- | --- |
| MGq (ΔN-HVD-HA)-t5: mouse Gαq ΔN-HVD-HA with C-terminal five amino acids replaced by those of transducin, SEQ ID NO:6 (protein, listed as Mus sp., HA tag; transducin C-terminal five residues) MACCLSEEAKEARRINDEIERHVRRDKRDARRELKLLLLGTGESGKSTFIKQMRIIHGSGYSDEDKRGFTKLVYQNIFTAMQAMIRAMDTLKIPYKYEHNKAHAQLVREVDVEKVSAFDVPDYAAIKSLWNDPGIQECYDRRREYQLSDSTKYYLNDLDRVADPSYLPTQQDVLRVRVPTTGIIEYPFDLQSVIFRMVDVGGQRSERRKWIHCFENVTSIMFLVALSEYDQVLVESDNENRMEESKALFRTIITYPWFQNSSVILFLNKKDLLEEKIMYSHLVDYFPEYDGPQRDAQAAREFILKMFVDLNPDSDKIIYSHFTCATDTENIRFVFAAVKDTILQLNLKDCGLF | ++ |
| MGq (ΔN-HVD-HA)-t44: mouse Gαq ΔN-HVD-HA with C-terminal 44 amino acids of transducin, SEQ ID NO:7 (protein, listed as Mus sp., HA tag; transducin C-terminal 44 residues) MACCLSEEAKEARRINDEIERHVRRDKRDARRELKLLLLGTGESGKSTFIKQMRIIHGSGYSDEDKRGFTKLVYQNIFTAMQAMIRAMDTLKIPYKYEHNKAHAQLVREVDVEKVSAFDVPDYAAIKSLWNDPGIQECYDRRREYQLSDSTKYYLNDLDRVADPSYLPTQQDVLRVRVPTTGIIEYPFDLQSVIFRMVDVGGQRSERRKWIHCFENVTSIMFLVALSEYDQVLVESDNENRMEESKALFRTIITYPWFQNSSVILFLNKKDLLEEKIMYSHLVDYFPEYDGPQRDAQAAREFILKMFVDLNPDNMRRDVKEIYSHMTCATDTQNVKFVFDAVTDIIIKENLKDCGLF | ++ |
| MGq (HV-HA)-t5: mouse Gαq HV-HA with C-terminal five amino acids of transducin, SEQ ID NO:12 (protein, listed as Mus sp., HA tag; transducin C-terminal five residues) MTLESIMACCLSEEAKEARRINDEIERHVRRDKRDARRELKLLLLGTGESGKSTFIKQMRIIHGSGYSDEDKRGFTKLVYQNIFTAMQAMIRAMDTLKIPYKYEHNKAHAQLVREVDVEKVSAFDVPDYAAIKSLWNDPGIQECYDRRREYQLSDSTKYYLNDLDRVADPSYLPTQQDVLRVRVPTTGIIEYPFDLQSVIFRMVDVGGQRSERRKWIHCFENVTSIMFLVALSEYDQVLVESDNENRMEESKALFRTIITYPWFQNSSVILFLNKKDLLEEKIMYSHLVDYFPEYDGPQRDAQAAREFILKMFVDLNPDSDKIIYSHFTCATDTENIRFVFAAVKDTILQLNLKDCGLF | + |
| MGq (HVD-HA)-t5: mouse Gαq HVD-HA with C-terminal five amino acids of transducin, SEQ ID NO:13 (protein, listed as Mus sp., HA tag; transducin C-terminal five residues) MTLESIMACCLSEEAKEARRINDEIERHVRRDKRDARRELKLLLLGTGESGKSTFIKQMRIIHGSDYSDEDKRGFTKLVYQNIFTAMQAMIRAMDTLKIPYKYEHNKAHAQLVREVDVEKVSAFDVPDYAAIKSLWNDPGIQECYDRRREYQLSDSTKYYLNDLDRVADPSYLPTQQDVLRVRVPTTGIIEYPFDLQSVIFRMVDVGGQRSERRKWIHCFENVTSIMFLVALSEYDQVLVESDNENRMEESKALFRTIITYPWFQNSSVILFLNKKDLLEEKIMYSHLVDYFPEYDGPQRDAQAAREFILKMFVDLNPDSDKIIYSHFTCATDTENIRFVFAAVKDTILQLNLKDCGLF | ++ |
| HGq: human Gαq protein, SEQ ID NO:15 (protein, listed as Homo sapiens) MTLESIMACCLSEEAKEARRINDEIERQLRRDKRDARRELKLLLLGTGESGKSTFIKQMRIIHGSGYSDEDKRGFTKLVYQNIFTAMQAMIRAMDTLKIPYKYEHNKAHAQLVREVDVEKVSAFENPYVDAIKSLWNDPGIQECYDRRREYQLSDSTKYYLNDLDRVADPAYLPTQQDVLRVRVPTTGIIEYPFDLQSVIFRMVDVGGQRSERRKWIHCFENVTSIMFLVALSEYDQVLVESDNENRMEESKALFRTIITYPWFQNSSVILFLNKKDLLEEKIMYSHLVDYFPEYDGPQRDAQAAREFILKMFVDLNPDSDKINYSHFTCATDTENIRFVFAAVKDTILQLNLKEYNAV | − |
| HGq (ΔN): human Gαq with truncation of N-terminal six amino acids, SEQ ID NO:16 (protein, listed as Homo sapiens) MACCLSEEAKEARRINDEIERQLRRDKRDARRELKLLLLGTGESGKSTFIKQMRIIHGSGYSDEDKRGFTKLVYQNIFTAMQAMIRAMDTLKIPYKYEHNKAHAQLVREVDVEKVSAFENPYVDAIKSLWNDPGIQECYDRRREYQLSDSTKYYLNDLDRVADPAYLPTQQDVLRVRVPTTGIIEYPFDLQSVIFRMVDVGGQRSERRKWIHCFENVTSIMFLVALSEYDQVLVESDNENRMEESKALFRTIITYPWFQNSSVILFLNKKDLLEEKIMYSHLVDYFPEYDGPQRDAQAAREFILKMFVDLNPDSDKIIYSHFTCATDTENIRFVFAAVKDTILQLNLKEYNAV | − |

target: T2, mouse olfactory receptor 17; test: Functional coupling of Gq variants with mouse olfactory receptor 17 (mammalian cell-based systems and Xenopus oocytes, calcium imaging); parameters: key to the marks not given beside the values
Text: as §1
as §2, with “7, 2000; which are herein incorporated by references for all purposes in a manner consistent with this disclosure.” left out

| Molecule | Functional Activity with Olfactory Receptor ml7 |
| --- | --- |
| MGq (ΔN-HVD-HA)-olf5: mouse Gαq ΔN-HVD-HA with C-terminal five amino acids of Gαolf, SEQ ID NO:14 (protein, listed as Mus sp., HA tag; Gαolf C-terminal five residues) MACCLSEEAKEARRINDEIERHVRRDKRDARRELKLLLLGTGESGKSTFIKQMRIIHGSDYSDEDKRGFTKLVYQNIFTAMQAMIRAMDTLKIPYKYEHNKAHAQLVREVDVEKVSAFDVPDYAAIKSLWNDPGIQECYDRRREYQLSDSTKYYLNDLDRVADPSYLPTQQDVLRVRVPTTGIIEYPFDLQSVIFRMVDVGGQRSERRKWIHCFENVTSIMFLVALSEYDQVLVESDNENRMEESKALFRTIITYPWFQNSSVILFLNKKDLLEEKIMYSHLVDYFPEYDGPQRDAQAAREFILKMFVDLNPDSDKIIYSHFTCATDTENIRFVFAAVKDTILQLNLKQYELL | ++ |
